Measurements as given in patent US20110142851A1 (EMERGENT PRODUCT DEVELOPMENT SEATTLE, published 2011).

T1: hu HIL6 Fc dimer (dimeric human HIL6/mouse IgG Fc fusion protein) (human)
T1 construct: also called human hyper-IL6 (IL6R-IL6-mIgG); dimeric HIL6
T1 chain: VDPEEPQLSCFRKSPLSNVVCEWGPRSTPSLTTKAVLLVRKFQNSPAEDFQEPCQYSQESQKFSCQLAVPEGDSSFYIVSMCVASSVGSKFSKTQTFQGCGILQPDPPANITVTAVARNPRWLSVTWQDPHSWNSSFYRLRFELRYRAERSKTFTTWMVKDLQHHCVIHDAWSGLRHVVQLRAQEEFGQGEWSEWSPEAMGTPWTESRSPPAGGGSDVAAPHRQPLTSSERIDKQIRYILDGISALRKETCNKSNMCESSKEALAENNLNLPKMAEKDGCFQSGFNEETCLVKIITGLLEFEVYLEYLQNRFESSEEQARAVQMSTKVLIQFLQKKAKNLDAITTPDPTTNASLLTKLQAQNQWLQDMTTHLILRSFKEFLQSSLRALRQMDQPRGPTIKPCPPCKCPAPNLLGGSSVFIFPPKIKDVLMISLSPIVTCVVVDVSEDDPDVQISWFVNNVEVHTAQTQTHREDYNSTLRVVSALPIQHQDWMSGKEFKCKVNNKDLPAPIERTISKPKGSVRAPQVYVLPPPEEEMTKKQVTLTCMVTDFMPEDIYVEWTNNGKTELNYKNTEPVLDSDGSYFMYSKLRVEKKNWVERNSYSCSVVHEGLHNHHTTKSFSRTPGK

T2: human gp130-Fc chimera (R&D Systems) (human, UniProt P40189 23-619)
T2 construct: Bought product; also called Human gp130-human IgG Fc fusion protein; soluble gp130; not shown: human IgG Fc
T2 sequence (looked up): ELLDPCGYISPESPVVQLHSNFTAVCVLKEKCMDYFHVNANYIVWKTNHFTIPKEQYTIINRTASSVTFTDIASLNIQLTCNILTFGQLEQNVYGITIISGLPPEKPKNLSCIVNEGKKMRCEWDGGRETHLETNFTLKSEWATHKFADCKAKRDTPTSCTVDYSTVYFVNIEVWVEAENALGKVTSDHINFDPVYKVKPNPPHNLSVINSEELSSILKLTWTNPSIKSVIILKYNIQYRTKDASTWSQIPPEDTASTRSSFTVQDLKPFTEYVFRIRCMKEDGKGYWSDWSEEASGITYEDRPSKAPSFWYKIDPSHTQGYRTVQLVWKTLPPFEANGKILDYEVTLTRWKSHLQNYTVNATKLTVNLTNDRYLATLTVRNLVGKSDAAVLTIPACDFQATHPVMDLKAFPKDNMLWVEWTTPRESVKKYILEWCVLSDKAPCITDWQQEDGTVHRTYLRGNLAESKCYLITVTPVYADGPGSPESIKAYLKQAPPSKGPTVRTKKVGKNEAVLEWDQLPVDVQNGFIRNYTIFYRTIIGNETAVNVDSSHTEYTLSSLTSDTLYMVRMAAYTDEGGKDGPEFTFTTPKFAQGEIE

B1: TRU(S6)-1013 (Fc fusion)
chain: EVQLLESGGGLVQPGGSLRLSCAASGFTFSGYVMGWVRQAPGKGLEWVSSISPSGGYTLYADSVKGRFTISRDNSKNTLYLQMNSLRAEDTAVYYCARAFSTRWYWGAFDIWGQGTMVTVSSGGGGSGGGGSGGGGSQDIQMTQSPATLSLSPGERATLSCRASQSVRSYLAWYQQKPGQAPRLLIYDASNRATGIPARFSGSGSGTDFTLTITSLQPEDIATYYCQQYDNLPLTFGGGTKVEIKTGEPKSSDKTHTCPPCPAPEAAGAPSVFLFPPKPKDTLMISRTPEVTCVVVDVSHEDPEVKFNWYVDGVEVHNAKTKPREEQYNSTYRVVSVLTVLHQDWLNGKAYACAVSNKALPAPIEKTISKAKGQPREPQVYTLPPSRDELTKNQVSLTCLVKGFYPSDIAVEWESNGQPENNYKTTPPVLDSDGSFFLYSKLTVDKSRWQQGNVFSCSVMHEALHNHYTQKSLSLSPGK
notes: SMIP (scFv - linker - CH2CH3)
B2: hu HIL6 AFH monomer (other)
chain: PEEPQLSCFRKSPLSNVVCEWGPRSTPSLTTKAVLLVRKFQNSPAEDFQEPCQYSQESQKFSCQLAVPEGDSSFYIVSMCVASSVGSKFSKTQTFQGCGILQPDPPANITVTAVARNPRWLSVTWQDPHSWNSSFYRLRFELRYRAERSKTFTTWMVKDLQHHCVIHDAWSGLRHVVQLRAQEEFGQGEWSEWSPEAMGTPWTESRSPPAGGGSDVAAPHRQPLTSSERIDKQIRYILDGISALRKETCNKSNMCESSKEALAENNLNLPKMAEKDGCFQSGFNEETCLVKIITGLLEFEVYLEYLQNRFESSEEQARAVQMSTKVLIQFLQKKAKNLDAITTPDPTTNASLLTKLQAQNQWLQDMTTHLILRSFKEFLQSSLRALRQM
B3: SEQ ID NO: 671 (scFv) (scFv)
scFv: EVQLLESGGGLVQPGGSLRLSCAASGFTFSFYQMHWVRQAPGKGLEWVSGIYPSGGYTKYADSVKGRFTISRDNSKNTLYLQMNSLRAEDTAVYYCARDLGYGSSWYYFDYWGQGTLVTVSSGGGGSGGGGSGGGGSQSALTQPASVSGSPGQSITISCSGTDSDVGGYNHVSWYQQHPGKAPKLIIYDVDHRPSGISNRFSGSKSGNTASLTISGLQAEDEADYYCSSYRSGSTYVFGTGTKVTVL
B4: SEQ ID NO: 679 (scFv) (scFv)
scFv: EVQLLESGGGLVQPGGSLRLSCAASGFTFSWYLMHWVRQAPGKGLEWVSGIWPSGGHTLYADSVKGRFTISRDNSKNTLYLQMNSLRAEDTAVYYCAREPLLWFGELSYNWFDPWGQGTLVTVSSGGGGSGGGGSGGGGSQDIQMTQSPSSVSASVGDRVTITCRASQGISSWLAWYQQKPGKAPKLLIYAASSLQSGVPSRFSGSGSGTDFTLTISSLQPEDFATYYCQQANSFPLTFGGGTKVEIK
B5: sIL6R Fc dimer (Fc fusion, UniProt P08887 20-358, looked up)
chain: LAPRRCPAQEVARGVLTSLPGDSVTLTCPGVEPEDNATVHWVLRKPAAGSHPSRWAGMGRRLLLRSVQLHDSGNYSCYRAGRPAGTVHLLVDVPPEEPQLSCFRKSPLSNVVCEWGPRSTPSLTTKAVLLVRKFQNSPAEDFQEPCQYSQESQKFSCQLAVPEGDSSFYIVSMCVASSVGSKFSKTQTFQGCGILQPDPPANITVTAVARNPRWLSVTWQDPHSWNSSFYRLRFELRYRAERSKTFTTWMVKDLQHHCVIHDAWSGLRHVVQLRAQEEFGQGEWSEWSPEAMGTPWTESRSPPAENEVSTPMQALTTNKDDDNILFRDSANATSLPVQD
notes: not shown: Fc
B6: TRU(S6)-1002 (Fc fusion)
chain: EVQLLESGGGLVQPGGSLRLSCAASGFTFSFYQMHWVRQAPGKGLEWVSGIYPSGGYTKYADSVKGRFTISRDNSKNTLYLQMNSLRAEDTAVYYCARDLGYGSSWYYFDYWGQGTLVTVSSGGGGSGGGGSGGGGSQSALTQPASVSGSPGQSITISCSGTDSDVGGYNHVSWYQQHPGKAPKLIIYDVDHRPSGISNRFSGSKSGNTASLTISGLQAEDEADYYCSSYRSGSTYVFGTGTKVTVLTGEPKSSDKTHTCPPCPAPEAAGAPSVFLFPPKPKDTLMISRTPEVTCVVVDVSHEDPEVKFNWYVDGVEVHNAKTKPREEQYNSTYRVVSVLTVLHQDWLNGKAYACAVSNKALPAPIEKTISKAKGQPREPQVYTLPPSRDELTKNQVSLTCLVKGFYPSDIAVEWESNGQPENNYKTTPPVLDSDGSFFLYSKLTVDKSRWQQGNVFSCSVMHEALHNHYTQKSLSLSPGK
notes: SMIP (scFv - linker - CH2CH3); also called S6-A2

Columns and labels:
hu HIL6 AFH monomer = molecular target: B2; test: SPR Biacore T100, binder captured by anti-human Fc
Method: (§1) Binding affinities and kinetic rate constants of interaction of hyper-IL6 (HIL6; monomer or dimer), and its components IL6 and sIL6R, with different anti-HIL6 binding domains in scFv, SMIP, Xceptor and reverse Xceptor formats were determined using a Biacore® T100 instrument (GE Healthcare, Piscataway, N.J.).
(§2) Anti-HIL6 SMIPS, Xceptors, and reverse Xceptors were captured by a monoclonal mouse anti-human Fc, which was covalently conjugated to a carboxylmethyl dextran (CM4) surface via amines using N-ethyl-N′-(3-dimethylaminopropyl)-carbodiimide hydrochloride and N-hydroxysuccinimide. The unoccupied sites of the activated surface were blocked by ethanolamine. […] In every cycle, three different HIL6 binders were captured on flow cells 2, 3 and 4, while flow cell 1 was used as the reference cell. For each cycle, a single concentration of a single HIL6-related molecule was injected for 150 seconds at 35 microliters per minute, and then allowed to dissociate for 300 seconds. At the end of the cycle, the surface was regenerated gently using 3M MgCl₂, which dissociates protein bound to anti-hFc capture antibody. Multiple cycles were performed to study binding of monomeric or dimeric HIL6 at different concentrations, in the range of 0-100 nM, for each set of three HIL6 binders captured. […] The experiment was performed at 25° C. Signal associated with binding to the reference cell was used to subtract for bulk refractive changes and blank (buffer-only) injections were used to correct for drift and system noise. The kinetic parameters and affinities were determined using BIAevaluation software. Anti-HIL6 scFv molecules were analyzed in the reverse orientation using a dimeric human HIL6/mouse IgG Fc fusion protein captured by an immobilized rabbit polyclonal anti-mouse IgG Fc antibody on the surface and injecting different concentrations of scFv over the surface. For the HIL6 components IL6 (eBioscience, catalog no. 14-8069) and sIL6R, a single 100 nM injection was performed to obtain a qualitative assessment of binding.

[1] = molecular target: T1, hu HIL6 Fc dimer (dimeric human …); test: SPR Biacore T100, binder captured by anti-human Fc
Method: as §1, §2

recombinant human IL6 = molecular target: T3, recombinant human IL6 (human, UniProt P05231 30-212); test: SPR Biacore T100, binder captured by anti-human Fc
T3 construct: also called rhIL6; IL6 monomer
Method: as §1, §2

sIL6R Fc dimer = molecular target: B5; test: SPR Biacore T100, binder captured by anti-human Fc
Method: as §1, §2

[2] = molecular target: T2, human gp130-Fc chimera (R&D Systems); test: SPR Biacore T100, binder captured by anti-human Fc
[3] = molecular target: T1, hu HIL6 Fc dimer (dimeric human …); test: SPR Biacore T100, HIL6-mouse Fc captured by anti-mouse Fc, scFv injected
IL6:sIL6R complex = molecular target: T4, IL6:sIL6R complex (human, UniProt P05231 30-212; P08887 20-358); test: SPR Biacore, SMIP captured by anti-human Fc, complex injected
T4 construct: Non-covalent complex made by mixing 50 nM of each; about 30 nM complex estimated
Method: In every cycle, three different HIL6 binders were captured on flow cells 2, 3 and 4, while flow cell 1 was used as the reference cell. For each cycle, a single concentration of a single HIL6-related molecule was injected for 150 seconds at 35 microliters per minute, and then allowed to dissociate for 300 seconds. At the end of the cycle, the surface was regenerated gently using 3M MgCl₂, which dissociates protein bound to anti-hFc capture antibody. Multiple cycles were performed to study binding of monomeric or dimeric HIL6 at different concentrations, in the range of 0-100 nM, for each set of three HIL6 binders captured. […] The experiment was performed at 25° C. Signal associated with binding to the reference cell was used to subtract for bulk refractive changes and blank (buffer-only) injections were used to correct for drift and system noise. The kinetic parameters and affinities were determined using BIAevaluation software. Anti-HIL6 scFv molecules were analyzed in the reverse orientation using a dimeric human HIL6/mouse IgG Fc fusion protein captured by an immobilized rabbit polyclonal anti-mouse IgG Fc antibody on the surface and injecting different concentrations of scFv over the surface. For the HIL6 components IL6 (eBioscience, catalog no. 14-8069) and sIL6R, a single 100 nM injection was performed to obtain a qualitative assessment of binding.

Kd (hu HIL6 AFH monomer) [nM]	Kd [1] [nM]	binding result (recombinant human IL6)	Kd [3] [nM]	Binder	further results
31	200	no binding (tested: 100 nM)		B1	binding result (sIL6R Fc dimer): no binding (tested: 100 nM)
				B2	Kd [2]: 0.68 nM
			1.04	B3	
			1.46	B4	
				B5	binding result [2]: no binding (tested: 100 nM)
2	1.3	no binding (tested: 100 nM)		B6	binding result (IL6:sIL6R complex): binds
